Three molecules from paper PMC5548801, “Characterization of C-terminal structure of MinC and its implication in evolution of bacterial cell division” (Scientific Reports, 2017) can be followed below.

In series [1] the target is MBP-EcMinC-Aahelix3 (E. coli | A. aeolicus) (UniProt P18196). In words: SEC-MALS; MALLS and SEC (Fig. S4). Background: SEC sorts molecules by how far they enter the pores of the column.
Series [2] deals with the molecule itself. In words: crystal structure; hanging-drop vapor diffusion at 20 °C, 0.1 M Tris-HCl pH 7.2, 0.44 M sodium/potassium tartrate; 3.0 Å; dimer in the asymmetric unit.
Series [3] deals with the molecule itself. In words: SEC-MALS; MALLS and SEC (Fig. S4).

For “MBP-EcMinC-Aahelix3 (from UniProt P18196 1-231; O67034 82-201)”, in series [1], the stoichiometry N was found to be 2.

B1: C-terminal domain of MinC from Escherichia coli (EcMinCCTD) (domain or fragment, E. coli)
chain: PVTKTRLIDTPVRSGQRIYAPQCDLIVTSHVSAGAELIADGNIHVYGMMRGRALAGASGDRETQIFCTNLMAELVSIAGEYWLSDQIPAEFYGKAARLQLVENALTVQPLN
notes: MinC, E. coli K12; C-terminal domain, a degradation fragment of ~13 kD of full-length MinC-6xHis; residues 122-231 are named for the superposition with TmMinCCTD; Crystals grew from full-length MinC-6xHis (pET22b-MinC) that was degraded over 3-6 weeks; source: E. coli BL21(DE3), full-length MinC-6xHis purified (Ni-agarose, SEC); degraded to the C-terminal domain during crystallization; not shown: …
On to B1, for which the binding result in series [2] is “binds”.

B2: MBP-EcMinC (natural protein, E. coli, UniProt P18196 1-231, looked up)
chain: MSNTPIELKGSSFTLSVVHLHEAEPKVIHQALEDKIAQAPAFLKHAPVVLNVSALEDPVNWSAMHKAVSATGLRVIGVSGCKDAQLKAEIEKMGLPILTEGKEKAPRPAPTPQAPAQNTTPVTKTRLIDTPVRSGQRIYAPQCDLIVTSHVSAGAELIADGNIHVYGMMRGRALAGASGDRETQIFCTNLMAELVSIAGEYWLSDQIPAEFYGKAARLQLVENALTVQPLN
notes: called full-length EcMinC; Modified pET-28b with MBP in place of the N-terminal His-tag; source: E. coli BL21(DE3), purified (Ni-agarose, SEC); not shown: MBP, N-terminal, kept
Consider B2, for which the “stoichiometry N” value in series [3] was determined as 2.

For orientation: stoichiometry N means a count of units in the complex or per binding partner.
